Results on 3 molecules are retold here after patent publication US20250388666A1 (BRIGHAM AND WOMEN S HOSPITAL, published 2025).

The target in experiment [1] is T1, CEACAM1 (Sino Biological) (human, UniProt P13688 35-428, limits assumed).
T1 construct: may be the same as CEACAM1-HIS; also called hCEACAM1; biotinylated soluble CEACAM1
T1 sequence: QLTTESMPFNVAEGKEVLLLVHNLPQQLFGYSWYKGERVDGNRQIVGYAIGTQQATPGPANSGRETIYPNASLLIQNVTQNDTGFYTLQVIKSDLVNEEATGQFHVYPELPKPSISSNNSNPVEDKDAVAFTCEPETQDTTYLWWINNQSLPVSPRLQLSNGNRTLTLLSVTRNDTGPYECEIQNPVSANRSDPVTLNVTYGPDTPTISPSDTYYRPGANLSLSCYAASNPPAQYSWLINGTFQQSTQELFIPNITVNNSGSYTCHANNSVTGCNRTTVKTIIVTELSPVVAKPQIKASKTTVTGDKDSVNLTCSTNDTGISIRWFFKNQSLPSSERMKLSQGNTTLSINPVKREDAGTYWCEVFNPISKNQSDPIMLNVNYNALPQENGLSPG
As to the kind of experiment: SPR single-cycle. In outline: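 Humanized affinity-matured IgGs from crude supernatants captured on Protein A to ~100 RU, with CEACAM1 analyte injected at 25–100 nM (three-point, two-fold) in HBS-P+ without regeneration. 200 s association per injection, 300 s single dissociation; reference-channel and blank subtracted.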

In experiment [2] the target is T1, CEACAM1 (Sino Biological). Description: SPR multi-cycle, IgG on Protein A. The method, then:
Multi-cycle kinetics analysis was performed on the twelve lead antibodies using a Biacore T200 instrument running Biacore T200 Evaluation Software V3.0.1 (Uppsala, Sweden) to establish an accurate affinity for CEACAM1. The purified antibodies were diluted to a concentration of […] in HBS-P+. At the start of each cycle, each antibody was captured on the Protein A surface to give an RL of ˜100 RU. Following capture, the surface was allowed to stabilize. Kinetic data was obtained using a flow rate of […] to minimize any potential mass transfer effects. For the kinetics analysis, CEACAM1 was used. Multiple repeats of the blank ([…]) and a repeat of a single concentration of the analyte were programmed into the kinetic run in order to check the stability of both the surface and analyte over the kinetic cycles. For kinetic analysis, a two-fold dilution range was selected from 200 to 3.125 nM CEACAM1. The association phase of CEACAM1 was monitored for 275 seconds and the dissociation phase was measured for 250 seconds. Regeneration of the Protein A surface was conducted using two injections of 10 mM glycine-HCL pH 1.5 at the end of each cycle.
The signal from the reference channel Fc1 was subtracted from that of Fc2, Fc3 and Fc4 to correct for differences in non-specific binding to a reference surface, and a global Rmax parameter was used in the 1-to-1 binding model. The relative KD was calculated by dividing the KD of the RSB02 Parent by that of the humanized and affinity matured variants on the same chip.

In experiment [3] the target is T2, CEACAM3 (Sino Biological) (human, UniProt P40198 35-155, limits assumed).
T2 construct: also called hCEACAM3
T2 sequence (looked up): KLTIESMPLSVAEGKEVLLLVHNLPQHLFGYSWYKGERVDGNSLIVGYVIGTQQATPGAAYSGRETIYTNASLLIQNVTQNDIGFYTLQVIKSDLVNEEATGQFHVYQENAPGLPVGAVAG
As to the kind of experiment: binding ELISA on plate-coated CEACAM (0.5 µg/mL); antibody at 1.67, 0.062 and 0.0069 µg/mL; signal as % of parent IgG on CEACAM1 at 1.67 µg/mL on the same plate.

Experiment [4] has as its target T2, CEACAM3 (Sino Biological). The experiment is described as above. The source holds these as a separate data set.
Experiment [5] addresses T3, CEACAM6 (Sino Biological) (human, UniProt P40199 35-320).
T3 construct: also called hCEACAM6
T3 sequence (looked up): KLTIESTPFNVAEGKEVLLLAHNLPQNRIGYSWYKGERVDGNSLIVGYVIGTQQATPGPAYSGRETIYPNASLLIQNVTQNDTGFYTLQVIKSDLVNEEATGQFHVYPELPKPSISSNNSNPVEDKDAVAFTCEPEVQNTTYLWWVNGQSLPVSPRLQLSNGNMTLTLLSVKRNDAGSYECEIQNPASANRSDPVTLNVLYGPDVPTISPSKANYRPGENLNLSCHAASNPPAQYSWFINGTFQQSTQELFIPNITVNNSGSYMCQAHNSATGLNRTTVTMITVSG
The description is as above.

Read-outs that look alike come from different tables or passages of the source.

B1: He17/L1 (antibody, IgG4, V domains shown)
VH: EVQLLESGGGLVQPGGSLRLSCAASGFSFSDYYLYWVRQAPGKGLEWVATISVGGGQTSYADSVKGRFTISRDNSKNTLYLQMNSLRAEDTAMYYCTRARTYGPAWFAYWGQGTLVTVSS
VL: DIVMTQSPDSLAVSLGERATINCKSSQSLLNSANQKNYLAWYQQKPGQPPKLLIYFASTRESGVPDRFSGSGSGTDFTLTISSLQAEDVAVYYCQSHYPFYYTFGGGTKVEIK
notes: IgG4 S241P, kappa; also called 17 / 1; H17/L1
The term Kd denotes a measure of binding affinity in units of concentration. The low end stands for higher affinity, the high end for lower affinity. Broadly, the koff is the rate constant with which the complex falls apart. As usually defined, the kon is a measure of how fast the partners come together. For B1, in experiment [1], binding was characterised by a dissociation constant (Kd) of 78 nM and the “fold better than Parent (KD)” value came out at 2.03 fold. Also, in experiment [2], the affinity, expressed as Kd, was 13.5 nM; the koff stood at 0.00409 s⁻¹; the kon worked out at 302000 M⁻¹ s⁻¹; the “relative KD to Parent” value stood at 6.31 ratio. Also, in experiment [3], the binding result was “no binding (tested: 1.67 µg/mL)”.

B2: Parent VH/L4#2 (antibody, IgG4, V domains shown)
VH: EVQLLESGGGLVQPGGSLRLSCAASGFSFSDYYLYWVRQAPGKGLEWVATISVGGGQTSYADSVKGRFTISRDNSKNTLYLQMNSLRAEDTAMYYCTRGLYYGPAWFAYWGQGTLVTVSS
VL: DIVMTQSPDSLAVSLGERATINCKSSQSLLNSANQKNYLAWYQQKPGQPPKLLIYFASTRESGVPDRFSGSGSGTDFTLTISSLQAEDVAVYYCQSHYPYPYTFGGGTKVEIK
notes: IgG4 S241P, kappa; also called VHp/L4 #2; VH2 N56Q / 4#2
In the case of B2, in experiment [1], the affinity, expressed as Kd, was 163 nM and the “fold better than Parent (KD)” value turned out to be 3.38 fold. In experiment [2], the Kd is 147 nM, the koff worked out at 0.00437 s⁻¹, the on-rate (kon) amounted to 29800 M⁻¹ s⁻¹ and the “relative KD to Parent” value came out at 1.3 ratio. Besides, in experiment [4], the binding result is on record as “no binding (tested: 1.67 µg/mL)”. In addition, the binding result in experiment [5] was “no binding (tested: 1.67 µg/mL)”.

B3: Parent VH/L18 (antibody, IgG4, V domains shown)
VH: EVQLLESGGGLVQPGGSLRLSCAASGFSFSDYYLYWVRQAPGKGLEWVATISVGGGQTSYADSVKGRFTISRDNSKNTLYLQMNSLRAEDTAMYYCTRGLYYGPAWFAYWGQGTLVTVSS
VL: DIVMTQSPDSLAVSLGERATINCKSSQSLLNSANQKNYLAWYQQKPGQPPKLLIYFASTRESGVPDRFSGSGSGTDFTLTISSLQAEDVAVYYCQSHFPYPFTFGGGTKVEIK
notes: IgG4 S241P, kappa; also called VHp/L18; VH2 N56Q / 18
Turning to B3, in experiment [1], the Kd was determined as 56 nM and the “fold better than Parent (KD)” value came to 2.83 fold. For the same molecule, in experiment [2], the Kd came to 101 nM, the koff turned out to be 0.00362 s⁻¹, the association rate constant (kon) worked out at 35700 M⁻¹ s⁻¹ and the “relative KD to Parent” value came out at 1.84 ratio. Further, in experiment [4], the binding result is listed as “no binding (tested: 1.67 µg/mL)”. Moreover, the binding result in experiment [5] was “no binding (tested: 1.67 µg/mL)”.
